Reference: patent publication US5750344A, “Method for selection of biologically active peptide sequences” (priority 1995, dated 1998)

Tests used:
[1] = target: T1, urokinase plasminogen activator receptor (uPAR) (Homo sapiens, UniProt Q03405); assay: Binding of individual phage clones to Sf9 cells expressing fluPAR (% recovery); conditions: for % Recovery uPAR: phage clone displaying the peptide, Sf9 cells expressing full length uPAR (fluPAR); for Specificity (uPAR/SPR): ratio of % recovery on uPAR Sf9 cells to % recovery on SPR Sf9 cells
T1 construct: 10^6 Sf9 cells expressing full length uPAR ("fluPAR", day 2 post infection); expressed in transfected cells; host or cells: Sf9 insect cells (baculovirus-infected)
T1 sequence (Q03405 23-335, species assumed): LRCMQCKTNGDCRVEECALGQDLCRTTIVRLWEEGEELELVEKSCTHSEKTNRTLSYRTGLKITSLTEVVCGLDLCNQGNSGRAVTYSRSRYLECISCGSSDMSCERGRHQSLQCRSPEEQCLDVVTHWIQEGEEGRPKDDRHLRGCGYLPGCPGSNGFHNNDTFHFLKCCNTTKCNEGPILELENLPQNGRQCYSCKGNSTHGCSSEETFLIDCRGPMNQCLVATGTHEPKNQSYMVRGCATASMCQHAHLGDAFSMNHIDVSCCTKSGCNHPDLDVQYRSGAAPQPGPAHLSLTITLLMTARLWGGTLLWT
Procedure: (§1) 1.) 15mer phage (2.5×10^10) prepared as described above were selected by coincubation with 10^6 Sf9 cells expressing full length uPAR ("fluPAR", day 2 post infection) at room temperature for 60 minutes in Grace's medium with 2% nonfat milk. Binding phage were eluted with 6M urea (pH 2.2), the pH neutralized by adding 2M Tris-HCl, and assayed. The yield of binding phage was 0.0013% (3.3×10^5 pfu). The phage were amplified on solid agar plates as plaques, eluted with Tris-buffered saline, and precipitated with polyethylene glycol.
(§2) 3.) The phage selected in round 2 were reselected on Sf9 cells expressing fluPAR (day 2 post-infection) as described for round 1 (2.8×10^10 phage on 10^6 Sf9 cells). The yield of binding phage from this round was 5.40% (1.5×10^9 pfu), indicating a substantial enrichment in binding phage. Phage from the urea eluate were cloned, and the DNA isolated and sequenced. Binding by individual phage clones was assayed against Sf9 cells expressing fluPAR, and Sf9 cells expressing substance P receptor (as a control).

[2] = target: T2, substance P receptor (Homo sapiens, UniProt P25103); assay: Binding of individual phage clones to Sf9 cells expressing substance P receptor (control); conditions: phage clone displaying the peptide
T2 construct: expressed in transfected cells; host or cells: Sf9 insect cells
T2 sequence (P25103 whole entry, species assumed): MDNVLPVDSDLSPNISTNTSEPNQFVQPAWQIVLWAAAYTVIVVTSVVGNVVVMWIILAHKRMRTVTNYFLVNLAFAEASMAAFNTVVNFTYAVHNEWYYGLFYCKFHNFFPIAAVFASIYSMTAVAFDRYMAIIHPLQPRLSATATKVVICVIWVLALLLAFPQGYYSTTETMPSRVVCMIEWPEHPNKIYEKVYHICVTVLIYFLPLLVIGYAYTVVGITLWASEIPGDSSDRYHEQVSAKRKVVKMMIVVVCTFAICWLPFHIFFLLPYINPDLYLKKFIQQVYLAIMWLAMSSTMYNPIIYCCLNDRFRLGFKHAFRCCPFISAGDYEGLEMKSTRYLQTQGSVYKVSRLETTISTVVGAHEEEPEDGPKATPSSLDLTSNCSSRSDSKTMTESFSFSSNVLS
Procedure: as §1, §2

Sequence	% Recovery uPAR [1] [%]	Specificity (uPAR/SPR) [1]	% Recovery SPR [2] [%]
AECLNGGTAVSNKYFSNIHWCN (displayed on phage) [reference compound]	6.8	850	0.008
AEMHRSLWEWYVPNQSA (displayed on phage)	4.2	105	0.040
AEPALLNWSFFFNPGLH (displayed on phage)	4.7	47	0.100
AEPLDLWSLYSLPPLAM (displayed on phage)	6.0	63	0.095
AEPMPHSLNFSQYLWYT (displayed on phage)	2.2	28	0.080
AESLPTLTSILWGKESV (displayed on phage)	0.5	23	0.022
AESQTGTLNTLFWNTLR (displayed on phage)	2.8	350	0.008
AESSLWRIFSPSALMMS (displayed on phage)	3.5	50	0.070
AESSLWTRYAWPSMPSY (displayed on phage)	12.1	47	0.260
AEWHPGLSFGSYLWSKT (displayed on phage)	5.7	168	0.034
